According to patent US12173052B2:

How the values were obtained:
[1] = target: loop D variants (YU-2 gp120, residues 279gp120 and 280gp120)
[2] = target: V5 variants (YU-2 gp120, residues 458gp120 and 459gp120)

Substance | IC50, in vitro pseudovirus neutralization [1] | IC50, in vitro pseudovirus neutralization [2]
45-46m7 (45-46m2+HC W47V) (antibody) | > 0.1 µg/mL | < 0.01 µg/mL
NIH45-46^G54W(HC)S28Y(LC) (antibody) | > 0.1 µg/mL | < 0.01 µg/mL
